US12201699, “Compositions and methods for promoting homology directed repair” (Editas Medicine, Inc.)

Target: Tet Repressor (TetR) (UniProt P04483 P04483:1-207)
Test: EMSA; lacks Tet operator; 500 nM TetR, 50 nM DNA, 300 mM NaCl, pH 7.7
Conditions: chain copies: 2 (inferred)
Text: The nucleotide sequence to which the Tet Repressor protein binds, typically consists of several repeats (5 or more) of the Tet Operator (TetO)19 base pair sequence, each followed by a 17 bp spacer. Here, we evaluated the binding of the Tet repressor protein to several Tet Operator sequence-containing variants that included spacer sequences of differing sizes, or no spacer sequences. Specifically, we investigated […] To test the binding capacity of the Tet Operator sequence-containing variants experimentally, 500 nM of recombinant TetR protein (Imgen BioSciences, Inc.; Cat. No. P-1002-0.5 mg) was incubated with 50 nM of template DNA in binding buffer (50 mM HEPES, 20% glycerol, 300 mM NaCl, pH 7.7) and protein binding to the Tet Operator sequence-containing variants was analyzed using an electrophoretic mobility shift assay using a 10% polyacrylamide gel (FIG. 8B).

Chain of Tet Repressor (TetR) (P04483 whole entry, one chain of several): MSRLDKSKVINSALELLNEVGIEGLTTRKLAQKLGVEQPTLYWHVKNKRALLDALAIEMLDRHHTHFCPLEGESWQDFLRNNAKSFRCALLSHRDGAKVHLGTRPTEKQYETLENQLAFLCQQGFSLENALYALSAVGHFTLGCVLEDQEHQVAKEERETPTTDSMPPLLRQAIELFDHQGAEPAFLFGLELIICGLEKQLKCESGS

B1: ssODN-179 (control) (ssDNA)
DNA: TGCTTCTGACACAACTGTGTTCACTAGCAACCTCAAACAGACACCATGGTGCATCTGACTCGTGTGGAGAAGTCGGCCGTTACTGCCCTGCAGGGCAAGCTTAACGTGGATGAAGTTCGTGGTGAGGCCCTGGGCAGGTTGGTATCAAGGTTACAAGACAGGTTTAAGGAGACCAATAG
binding result: no binding

B2: ssODN-109 (control) (ssDNA)
DNA: AACAGACACCATGGTGCATCTGACTCGTGTGGAGAAGTCGGCCGTTACTGCCCTGCAGGGCAAGCTTAACGTGGATGAAGTTCGTGGTGAGGCCCTGGGCAGGTTGGTA
binding result: no binding
